Results: patent US20250109209A1 (ABSCI, published 2025)

T1: human TL1A (human, UniProt O95150 72-251)
T1 construct: Antigen in SPR and ELISA; Also used here for places that print only 'TL1A' and for endogenous TL1A in human whole blood; also called TNFSF15
T1 sequence (looked up): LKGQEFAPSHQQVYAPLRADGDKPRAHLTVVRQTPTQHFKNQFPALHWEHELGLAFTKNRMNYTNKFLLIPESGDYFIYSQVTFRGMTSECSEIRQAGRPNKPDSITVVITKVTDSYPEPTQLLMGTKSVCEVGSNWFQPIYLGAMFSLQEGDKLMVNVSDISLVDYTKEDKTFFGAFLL

T2: Cyno TL1A (cyno, UniProt G7PRK8 72-251)
T2 sequence: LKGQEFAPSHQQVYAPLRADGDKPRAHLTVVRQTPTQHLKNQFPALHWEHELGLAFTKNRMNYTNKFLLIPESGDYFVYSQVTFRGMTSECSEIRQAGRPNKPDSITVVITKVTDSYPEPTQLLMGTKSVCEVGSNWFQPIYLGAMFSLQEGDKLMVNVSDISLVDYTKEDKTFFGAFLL


Assays:
human TL1A [1] = biological target: T1, human TL1A; test: SPR, Fab format
human TL1A [2] = biological target: T1, human TL1A; test: SPR, Fab format, average
Cyno TL1A = biological target: T2, Cyno TL1A; test: SPR, Fab format, average
human TL1A [3] = biological target: T1, human TL1A; test: SPR, Fab lysate, average

Row | binding result (human TL1A [1]) | Kd (human TL1A [2]) | Kd (Cyno TL1A) | Kd (human TL1A [3]) | Binder
1 | – | 0.31 nM | 0.62 nM | 0.31 nM | Antibody 3 (Fab format) (Fab, V domains shown, High priority lead, Fab format) VH: QVQLQESGPGLVRPSQTLSLTCTVSGFDIQDTYMHWVRQRPGRGLEWMGRIEPAGGHTKYNPSLKSRVTITRDTSKNQVSLRLSSVTAADTAVYYCVRSGGLPDAWGQGSLVTVSS VL: DIQMTQSPSSLSASVGDRVTITCRASQGVRYMYWYQQKPGKAPKLLIYGASNLASGVPSRFSGSGSGTDFTFTISSLQPEDIATYYCQQWEGNPRTFGQGTKVEIK
2 | binds | – | – | – | Antibody 41 (Fab format) (Fab, V domains shown, Backup lead, Fab format) VH: QVQLQESGPGLVRPSQTLSLTCTVSGFDITDTYMHWVRQRPGRGLEWMGRIEPAGGHTKYNPSLKSRVTITRDTSKNQVSLRLSSVTAADTAVYYCVRSGGLPDVWGQGSLVTVSS VL: DIQMTQSPSSLSASVGDRVTITCRASSSVSYMYWYQQKPGKAPKLLIYSASNLASGVPSRFSGSGSGTDFTFTISSLQPEDIATYYCQQWEGNPRTFGQGTKVEIK
3 | – | 0.43 nM | 1.63 nM | 0.43 nM | Antibody 7 (Fab format) (Fab, V domains shown, High priority lead, Fab format) VH: QVQLQESGPGLVRPSQTLSLTCTVSGFDMGDTYMHWVRQRPGRGLEWMGRIEPAAGHTKYNPSLKSRVTITRDTSKNQVSLRLSSVTAADTAVYYCVRSGGLPDIWGQGSLVTVSS VL: DIQMTQSPSSLSASVGDRVTITCRASQGVEYMYWYQQKPGKAPKLLIYGASNLASGVPSRFSGSGSGTDFTFTISSLQPEDIATYYCQQWEGNPRTFGQGTKVEIK
4 | binds | – | – | – | Antibody 42 (Fab format) (Fab, V domains shown, Backup lead, Fab format) VH: QVQLQESGPGLVRPSQTLSLTCTVSGFDITDTYMHWVRQRPGRGLEWMGRIEPAGGHTKYNPSLKSRVTITRDTSKNQVSLRLSSVTAADTAVYYCVRSGGLPDVWGQGSLVTVSS VL: DIQMTQSPSSLSASVGDRVTITCRASQGVGYMYWYQQKPGKAPKLLIYGASNLASGVPSRFSGSGSGTDFTFTISSLQPEDIATYYCQQWEGNPRTFGQGTKVEIK
5 | – | 0.41 nM | 0.26 nM | 0.41 nM | Antibody 6 (Fab format) (Fab, V domains shown, High priority lead, Fab format) VH: QVQLQESGPGLVRPSQTLSLTCTVSGFDMADTYMHWVRQRPGRGLEWMGRIEPAGGHTKYNPSLKSRVTITRDTSKNQVSLRLSSVTAADTAVYYCVRSGGLPDMWGQGSLVTVSS VL: DIQMTQSPSSLSASVGDRVTITCRASQGVEYMYWYQQKPGKAPKLLIYSASNLASGVPSRFSGSGSGTDFTFTISSLQPEDIATYYCQQWEGNPRTFGQGTKVEIK
6 | binds | – | – | – | Antibody 24 (Fab format) (Fab, V domains shown, Backup lead, Fab format) VH: QVQLQESGPGLVRPSQTLSLTCTVSGFDIQDTYMHWVRQRPGRGLEWMGRIEPAGGHTKYNPSLKSRVTITRDTSKNQVSLRLSSVTAADTAVYYCVRSGGLPDAWGQGSLVTVSS VL: DIQMTQSPSSLSASVGDRVTITCRASQGVGYMYWYQQKPGKAPKLLIYATSNLASGVPSRFSGSGSGTDFTFTISSLQPEDIATYYCQQWEGNPRTFGQGTKVEIK
7 | – | 0.33 nM | 0.79 nM | 0.33 nM | Antibody 5 (Fab format) (Fab, V domains shown, High priority lead, Fab format) VH: QVQLQESGPGLVRPSQTLSLTCTVSGFDMQDTYMHWVRQRPGRGLEWMGRIEPASGHTKYNPSLKSRVTITRDTSKNQVSLRLSSVTAADTAVYYCVRSGGLPDVWGQGSLVTVSS VL: DIQMTQSPSSLSASVGDRVTITCRASQGVMYMYWYQQKPGKAPKLLIYGASNLASGVPSRFSGSGSGTDFTFTISSLQPEDIATYYCQQWEGNPRTFGQGTKVEIK
8 | binds | – | – | – | Antibody 39 (Fab format) (Fab, V domains shown, Backup lead, Fab format) VH: QVQLQESGPGLVRPSQTLSLTCTVSGFDIQDTYMHWVRQRPGRGLEWMGRIEPAGGHTKYNPSLKSRVTITRDTSKNQVSLRLSSVTAADTAVYYCVRSGGLPDAWGQGSLVTVSS VL: DIQMTQSPSSLSASVGDRVTITCRASSSVSYMYWYQQKPGKAPKLLIYATSNLASGVPSRFSGSGSGTDFTFTISSLQPEDIATYYCQQWEGNPRTFGQGTKVEIK

Continued, binder first:

Row | Binder | binding result (human TL1A [1]) | Kd (human TL1A [2]) | Kd (Cyno TL1A) | Kd (human TL1A [3])
9 | Antibody 51 (Fab format) (Fab, V domains shown, Backup lead, Fab format) VH: QVQLQESGPGLVRPSQTLSLTCTVSGFDIQDTYMHWVRQRPGRGLEWMGRIEPAGGHTKYNPSLKSRVTITRDTSKNQVSLRLSSVTAADTAVYYCVRSGGLPDAWGQGSLVTVSS VL: DIQMTQSPSSLSASVGDRVTITCRASQGVEYMYWYQQKPGKAPKLLIYGASNLASGVPSRFSGSGSGTDFTFTISSLQPEDIATYYCQQWEGNPRTFGQGTKVEIK | binds | – | – | –
10 | Antibody 8 (Fab format) (Fab, V domains shown, High priority lead, Fab format) VH: QVQLQESGPGLVRPSQTLSLTCTVSGFDMQSTYMHWVRQRPGRGLEWMGRIEPAGGHTKYNPSLKSRVTITRDTSKNQVSLRLSSVTAADTAVYYCVRSGGLPDVWGQGSLVTVSS VL: DIQMTQSPSSLSASVGDRVTITCRASSSVSYMYWYQQKPGKAPKLLIYGASNLASGVPSRFSGSGSGTDFTFTISSLQPEDIATYYCQQWEGNPRTFGQGTKVEIK | – | 0.38 nM | 3.26 nM | 0.38 nM
11 | Antibody 33 (Fab format) (Fab, V domains shown, Backup lead, Fab format) VH: QVQLQESGPGLVRPSQTLSLTCTVSGFDIQDTYMHWVRQRPGRGLEWMGRIEPAGGHTKYNPSLKSRVTITRDTSKNQVSLRLSSVTAADTAVYYCVRSGGLPDAWGQGSLVTVSS VL: DIQMTQSPSSLSASVGDRVTITCRASQGVEYMYWYQQKPGKAPKLLIYATSNLASGVPSRFSGSGSGTDFTFTISSLQPEDIATYYCQQWEGNPRTFGQGTKVEIK | binds | – | – | –
12 | Antibody 1 (Fab format) (Fab, V domains shown, High priority lead, Fab format; also called Lead #1) VH: QVQLQESGPGLVRPSQTLSLTCTVSGFDIQDTYMHWVRQRPGRGLEWMGRIEPAGGHTKYNPSLKSRVTITRDTSKNQVSLRLSSVTAADTAVYYCASSGGMPDLWGQGSLVTVSS VL: DIQMTQSPSSLSASVGDRVTITCRASQGVEYMYWYQQKPGKAPKLLIYGASNLASGVPSRFSGSGSGTDFTFTISSLQPEDIATYYCQQWEGNPRTFGQGTKVEIK | – | 0.17 nM | 0.17 nM | 0.17 nM
13 | Antibody 45 (Fab format) (Fab, V domains shown, Backup lead, Fab format) VH: QVQLQESGPGLVRPSQTLSLTCTVSGFDIEDTYMHWVRQRPGRGLEWMGRIEPASGHTKYNPSLKSRVTITRDTSKNQVSLRLSSVTAADTAVYYCAISGGVPDVWGQGSLVTVSS VL: DIQMTQSPSSLSASVGDRVTITCRASSSVSYMYWYQQKPGKAPKLLIYATSNLASGVPSRFSGSGSGTDFTFTISSLQPEDIATYYCQQWEGNPRTFGQGTKVEIK | binds | – | – | –
14 | Antibody 30 (Fab format) (Fab, V domains shown, Backup lead, Fab format) VH: QVQLQESGPGLVRPSQTLSLTCTVSGFDIQDTYMHWVRQRPGRGLEWMGRIEPAGGHTKYNPSLKSRVTITRDTSKNQVSLRLSSVTAADTAVYYCVRSGGLPDAWGQGSLVTVSS VL: DIQMTQSPSSLSASVGDRVTITCRASSSVSYMYWYQQKPGKAPKLLIYSASNLASGVPSRFSGSGSGTDFTFTISSLQPEDIATYYCQQWEGNPRTFGQGTKVEIK | binds | – | – | –
15 | Antibody 2 (Fab format) (Fab, V domains shown, High priority lead, Fab format) VH: QVQLQESGPGLVRPSQTLSLTCTVSGLDPDDTYMHWVRQRPGRGLEWMGRIEPAGGHTKYNPSLKSRVTITRDTSKNQVSLRLSSVTAADTAVYYCVISGGLPDVWGQGSLVTVSS VL: DIQMTQSPSSLSASVGDRVTITCRASSSVSYMYWYQQKPGKAPKLLIYATSNLASGVPSRFSGSGSGTDFTFTISSLQPEDIATYYCQQWEGNPRTFGQGTKVEIK | – | 0.2 nM | 0.94 nM | 0.2 nM
16 | Antibody 34 (Fab format) (Fab, V domains shown, Backup lead, Fab format) VH: QVQLQESGPGLVRPSQTLSLTCTVSGLDPDDTYMHWVRQRPGRGLEWMGRIEPAGGHTKYNPSLKSRVTITRDTSKNQVSLRLSSVTAADTAVYYCVISGGLPDVWGQGSLVTVSS VL: DIQMTQSPSSLSASVGDRVTITCRASQGIYYMYWYQQKPGKAPKLLIYATSNLASGVPSRFSGSGSGTDFTFTISSLQPEDIATYYCQQWEGNPRTFGQGTKVEIK | binds | – | – | –
17 | Antibody 4 (Fab format) (Fab, V domains shown, High priority lead, Fab format) VH: QVQLQESGPGLVRPSQTLSLTCTVSGFDMADTYMHWVRQRPGRGLEWMGRIEPAGGHTKYNPSLKSRVTITRDTSKNQVSLRLSSVTAADTAVYYCVRSGGLPDMWGQGSLVTVSS VL: DIQMTQSPSSLSASVGDRVTITCRASSSVSYMYWYQQKPGKAPKLLIYGASNLASGVPSRFSGSGSGTDFTFTISSLQPEDIATYYCQQWEGNPRTFGQGTKVEIK | – | 0.33 nM | 0.16 nM | 0.33 nM
18 | Antibody 27 (Fab format) (Fab, V domains shown, Backup lead, Fab format) VH: QVQLQESGPGLVRPSQTLSLTCTVSGFDIQDTYMHWVRQRPGRGLEWMGRIEPAGGHTKYNPSLKSRVTITRDTSKNQVSLRLSSVTAADTAVYYCVRSGGLPDAWGQGSLVTVSS VL: DIQMTQSPSSLSASVGDRVTITCRASQGVRYMYWYQQKPGKAPKLLIYATSNLASGVPSRFSGSGSGTDFTFTISSLQPEDIATYYCQQWEGNPRTFGQGTKVEIK | binds | – | – | –
19 | Antibody 53 (Fab format) (Fab, V domains shown, Backup lead, Fab format) VH: QVQLQESGPGLVRPSQTLSLTCTVSGFDIQDTYMHWVRQRPGRGLEWMGRIEPASGHTKYNPSLKSRVTITRDTSKNQVSLRLSSVTAADTAVYYCARSGGMMDRWGQGSLVTVSS VL: DIQMTQSPSSLSASVGDRVTITCRASQGVRYMYWYQQKPGKAPKLLIYGASNLASGVPSRFSGSGSGTDFTFTISSLQPEDIATYYCQQWEGNPRTFGQGTKVEIK | binds | – | – | –
